# Data from patent US9018171B2, “Uses of an immunomodulatory protein (GMI) from Ganoderma microsporum” (Mycomagic Biotechnology Co., Ltd., priority 2010, dated 2015).
# Entries after “also recorded” stand apart in the source; their conditions may differ. Where two headings read alike, the source gives them in different places.
# Columns and labels:
# A549 cells = experiment: Cell invasion assay (modified Boyden chamber, Matrigel); type: cell-based, human
# Protocol: A549 cells (2×10^4 cells/well) were seeded onto the upper chamber of membrane and treated with different concentrations of GMI (4, 8, 16 μg/ml) for 2 hours. The bottom chamber was filled with DMEM supplemented with EGF 10 ng/ml or 100 ng/ml. After about 24 h, the invasive A549 cells passed through the membrane and were quantified by counting the cells that migrated onto the membrane. Cells were fixed, stained, and counted as described in the text. The data represent mean±SD.
# Cell invasion assays were performed using modified Boyden chambers 6.5 mm in diameter, with […] porous (8 μm) polycarbonate membrane separating the two chambers (Transwell; Costar, Cambridge, Mass.). The membrane of the upper chamber was coated with Matrigel (0.3 mg/mL; BD Biosciences Discovery Labware) for 3 hours. Condition medium was prepared from A549 cells which were pretreated with or without GMI, LY294002 (50 μM), or AG1478 (2 μM) for 8 h. To the medium of the bottom chamber was added 10% FBS-DMEM containing EGF (10 ng/ml) or condition medium. Cells were trypsinized, centrifuged, and resuspended at 4×10^5 cells/mL in 0.5% FBS-DMEM. After 24 h incubation, the cells on the upper well and the membranes coated with Matrigel were fixed with methanol, and stained with 20% Giemsa solution (Merck). The cells that were attached to the lower surface of the polycarbonate filter were counted under a light microscope (magnification, X 100). The experiments were performed in triplicate.
# MOLT-4 = experiment: NCI60 in vitro screening, Leukemia; type: cell-based
# RPMI-8226 = experiment: NCI60 in vitro screening, Leukemia; type: cell-based
# NCI-H226 = type: cell-based
# NCI-H460 = type: cell-based
# SNB-19 = experiment: NCI60 in vitro screening, CNS Cancer; type: cell-based
# SNB-75 = experiment: NCI60 in vitro screening, CNS Cancer; type: cell-based
# UACC-257 = experiment: NCI60 in vitro screening, Melanoma; type: cell-based
# OVCAR-3 = experiment: NCI60 in vitro screening, Ovarian Cancer; type: cell-based
# OVCAR-5 = experiment: NCI60 in vitro screening, Ovarian Cancer; type: cell-based
# NCI/ADR-RES = experiment: NCI60 in vitro screening, Ovarian Cancer; type: cell-based
# PC-3 = experiment: NCI60 in vitro screening, Prostate Cancer; type: cell-based
# HS 578T = experiment: NCI60 in vitro screening, Breast Cancer; type: cell-based
# HOP-92 = type: cell-based; conditions: HOP-92, one dose
# U251 = experiment: NCI60 in vitro screening, CNS Cancer; type: cell-based; conditions: U251, one dose
# NCI60 tumour cell lines = experiment: NCI60 in vitro screening, one dose, whole panel; type: cell-based; conditions: mean over all cell lines
molecule,measurement,setting,value
"GMI: immunomodulatory protein from Ganoderma microsporum, amino acid sequence SEQ ID NO: 3, manufactured by Mycomagic Biotechnology Co., Ltd. (protein, listed as Ganoderma microsporum) MSDTALIFTLAWNVKQLAFDYTPNWGRGRPSSFIDTVTFPTVLTDKAYTYRVVVSGKDLGVRPSYAVESDGSQKINFLEYNSGYGIADTNTIQVYVIDPDTGNNFIVAQWN",EGF-promoted invasion reduced to,"A549 cells; GMI 4 μg/ml, EGF",52%
same,invaded cell number,"A549 cells; GMI 4 μg/ml, EGF, decreased from 2515±212",1306±30
same,invasion reduced to,"A549 cells; GMI 4 μg/ml, without EGF",22%
same,invaded cell number,"A549 cells; GMI 4 μg/ml, without EGF, decreased from 1895±37",419±6
same,EGF-promoted invasion reduced to,"A549 cells; GMI 16 μg/ml, EGF",less than 5%
same,invaded cell number,"A549 cells; GMI 16 μg/ml, EGF, decreased from 2515±212",121±39
same,invasion reduced to,"A549 cells; GMI 16 μg/ml, without EGF",less than 9%
same,invaded cell number,"A549 cells; GMI 16 μg/ml, without EGF, decreased from 1895±37",61±3
same,EGF-promoted invasion of A549 cells,"A549 cells; increasing concentrations of GMI, EGF",significantly inhibits; also recorded: dose-dependent decrease in EGF-promoted invasion
same,invasion of A549 cells,"A549 cells; increasing concentrations of GMI, without EGF",dose-dependent decrease in invasion
same,TGI,MOLT-4; MOLT-4,>1.25E2
same,Percent Growth,"MOLT-4; MOLT-4, Log10 Concentration 0.1",103%
same,Percent Growth,"MOLT-4; MOLT-4, Log10 Concentration 1.1",62%
same,Percent Growth,"MOLT-4; MOLT-4, Log10 Concentration 2.1",1%
same,Percent Growth,"MOLT-4; MOLT-4, Log10 Concentration −0.9",97%
same,Percent Growth,"MOLT-4; MOLT-4, Log10 Concentration −1.9",95%
same,Growth Percent,"MOLT-4; MOLT-4, one dose",44.75%
same,GI50,"MOLT-4; MOLT-4, in µg/mL",1.99E1
same,TGI,RPMI-8226; RPMI-8226,>1.25E2
same,Percent Growth,"RPMI-8226; RPMI-8226, Log10 Concentration 0.1",105%
same,Percent Growth,"RPMI-8226; RPMI-8226, Log10 Concentration 1.1",100%
same,Percent Growth,"RPMI-8226; RPMI-8226, Log10 Concentration 2.1",72%
same,Percent Growth,"RPMI-8226; RPMI-8226, Log10 Concentration −0.9",102%
same,Percent Growth,"RPMI-8226; RPMI-8226, Log10 Concentration −1.9",105%
same,Growth Percent,"RPMI-8226; RPMI-8226, one dose",96.01%
same,TGI,NCI-H226; NCI-H226,>1.25E2
same,Percent Growth,"NCI-H226; NCI-H226, Log10 Concentration 0.1",101%
same,Percent Growth,"NCI-H226; NCI-H226, Log10 Concentration 1.1",65%
same,Percent Growth,"NCI-H226; NCI-H226, Log10 Concentration 2.1",23%
same,Percent Growth,"NCI-H226; NCI-H226, Log10 Concentration −0.9",99%
same,Percent Growth,"NCI-H226; NCI-H226, Log10 Concentration −1.9",100%
same,Growth Percent,"NCI-H226; NCI-H226, one dose",83.77%
same,GI50,"NCI-H226; NCI-H226, in µg/mL",2.90E1
same,TGI,NCI-H460; NCI-H460,>1.25E2
same,Percent Growth,"NCI-H460; NCI-H460, Log10 Concentration 0.1",100%
same,Percent Growth,"NCI-H460; NCI-H460, Log10 Concentration 1.1",91%
same,Percent Growth,"NCI-H460; NCI-H460, Log10 Concentration 2.1",33%
same,Percent Growth,"NCI-H460; NCI-H460, Log10 Concentration −0.9",104%
same,Percent Growth,"NCI-H460; NCI-H460, Log10 Concentration −1.9",103%
same,Growth Percent,"NCI-H460; NCI-H460, one dose",86.38%
same,GI50,"NCI-H460; NCI-H460, in µg/mL",6.47E1
same,TGI,SNB-19; SNB-19,4.27E1
same,Percent Growth,"SNB-19; SNB-19, Log10 Concentration 0.1",95%
same,Percent Growth,"SNB-19; SNB-19, Log10 Concentration 1.1",66%
same,Percent Growth,"SNB-19; SNB-19, Log10 Concentration 2.1",−58%
same,Percent Growth,"SNB-19; SNB-19, Log10 Concentration −0.9",98%
same,Percent Growth,"SNB-19; SNB-19, Log10 Concentration −1.9",98%
same,Growth Percent,"SNB-19; SNB-19, one dose",58.70%
same,GI50,"SNB-19; SNB-19, in µg/mL",1.69E1
same,LC50,"SNB-19; SNB-19, in µg/mL",1.08E2
same,TGI,SNB-75; SNB-75,1.45E1
same,Percent Growth,"SNB-75; SNB-75, Log10 Concentration 0.1",97%
same,Percent Growth,"SNB-75; SNB-75, Log10 Concentration 1.1",5%
same,Percent Growth,"SNB-75; SNB-75, Log10 Concentration 2.1",−68%
same,Percent Growth,"SNB-75; SNB-75, Log10 Concentration −0.9",101%
same,Percent Growth,"SNB-75; SNB-75, Log10 Concentration −1.9",95%
same,Growth Percent,"SNB-75; SNB-75, one dose",−45.73%
same,GI50,"SNB-75; SNB-75, in µg/mL",4.04E0
same,LC50,"SNB-75; SNB-75, in µg/mL",7.14E1
same,TGI,UACC-257; UACC-257,>1.25E2
same,Percent Growth,"UACC-257; UACC-257, Log10 Concentration 0.1",98%
same,Percent Growth,"UACC-257; UACC-257, Log10 Concentration 1.1",37%
same,Percent Growth,"UACC-257; UACC-257, Log10 Concentration 2.1",52%
same,Percent Growth,"UACC-257; UACC-257, Log10 Concentration −0.9",99%
same,Percent Growth,"UACC-257; UACC-257, Log10 Concentration −1.9",103%
same,Growth Percent,"UACC-257; UACC-257, one dose",89.25%
same,TGI,OVCAR-3; OVCAR-3,>1.25E2
same,Percent Growth,"OVCAR-3; OVCAR-3, Log10 Concentration 0.1",108%
same,Percent Growth,"OVCAR-3; OVCAR-3, Log10 Concentration 1.1",85%
same,Percent Growth,"OVCAR-3; OVCAR-3, Log10 Concentration 2.1",26%
same,Percent Growth,"OVCAR-3; OVCAR-3, Log10 Concentration −0.9",102%
same,Percent Growth,"OVCAR-3; OVCAR-3, Log10 Concentration −1.9",99%
same,Growth Percent,"OVCAR-3; OVCAR-3, one dose",94.57%
same,GI50,"OVCAR-3; OVCAR-3, in µg/mL",4.90E1
same,TGI,OVCAR-5; OVCAR-5,>1.25E2
same,Percent Growth,"OVCAR-5; OVCAR-5, Log10 Concentration 0.1",98%
same,Percent Growth,"OVCAR-5; OVCAR-5, Log10 Concentration 1.1",89%
same,Percent Growth,"OVCAR-5; OVCAR-5, Log10 Concentration 2.1",66%
same,Percent Growth,"OVCAR-5; OVCAR-5, Log10 Concentration −0.9",100%
same,Percent Growth,"OVCAR-5; OVCAR-5, Log10 Concentration −1.9",101%
same,Growth Percent,"OVCAR-5; OVCAR-5, one dose",107.85%
same,TGI,NCI/ADR-RES,>1.25E2
same,Percent Growth,NCI/ADR-RES; Log10 Concentration 0.1,105%
same,Percent Growth,NCI/ADR-RES; Log10 Concentration 1.1,81%
same,Percent Growth,NCI/ADR-RES; Log10 Concentration 2.1,19%
same,Percent Growth,NCI/ADR-RES; Log10 Concentration −0.9,100%
same,Percent Growth,NCI/ADR-RES; Log10 Concentration −1.9,102%
same,GI50,NCI/ADR-RES; in µg/mL,3.94E1
same,TGI,PC-3; PC-3,3.87E1
same,Percent Growth,"PC-3; PC-3, Log10 Concentration 0.1",98%
same,Percent Growth,"PC-3; PC-3, Log10 Concentration 1.1",73%
same,Percent Growth,"PC-3; PC-3, Log10 Concentration 2.1",−76%
same,Percent Growth,"PC-3; PC-3, Log10 Concentration −0.9",102%
same,Percent Growth,"PC-3; PC-3, Log10 Concentration −1.9",104%
same,Growth Percent,"PC-3; PC-3, one dose",79.73%
same,GI50,"PC-3; PC-3, in µg/mL",1.79E1
same,LC50,"PC-3; PC-3, in µg/mL",8.34E1
same,TGI,HS 578T,>1.25E2
same,Percent Growth,HS 578T; Log10 Concentration 0.1,108%
same,Percent Growth,HS 578T; Log10 Concentration 1.1,96%
same,Percent Growth,HS 578T; Log10 Concentration 2.1,64%
same,Percent Growth,HS 578T; Log10 Concentration −0.9,106%
same,Percent Growth,HS 578T; Log10 Concentration −1.9,104%
same,Growth Percent,HOP-92,22.29%
same,Growth Percent,U251,69.04%
same,"Growth Percent, Mean",NCI60 tumour cell lines,64.66%
